According to patent US12269859B2, “Synthetic immune receptors and methods of use thereof” (Angeles Therapeutics, Inc., priority 2016, dated 2025):

Tests used:
RAJI cells = assay: Jurkat NFAT-GFP assay, coculture with RAJI cells; assay type: cell-based, human; details: overnight co-culture with RAJI cells; Table 10C
Experimental: (B) Induction of NFAT promoter driven GFP expression. The control vector- and SIR-expressing Jurkat-NFAT-GFP cocultured for 4-24 hours with the target antigen-expressing cell line (described above) and their ability to bind to the target antigen is assayed by measuring induction of GFP expression using Flow Cytometry. Cellular supernatant is collected and assayed for the induction of cytokines (e.g., IL2).
Jurkat NFAT-GFP Assay For Synthetic Immune Receptors. The Jurkat-NFAT-GFP cells are engineered in such a way that the IL-2 promoter, which carries NFAT binding sites, is cloned upstream of the GFP gene. These cells have been used to study signaling via TCR and CAR. The different SIRs were stably expressed in Jurkat NFAT-GFP cells by lentiviral mediated gene transfer, followed by selection with puromycin. The SIR-expressing Jurkat-NFAT-GFP cells were cocultured with the target cells at E:T ratio of approximately 1:2 for approximately 4 hours to 18 hours. When the interaction between SIRs and their target antigen results in activation of the NFAT pathway, GFP expression is induced.
Induction of GFP expression by coculturing of Jurkat-NFAT-GFP cells expressing different SIR constructs and the different target cells was studied essentially as described previously (Wu, Roybal, Puchner, Onuffer, & Lim, 2015). GFP expression was monitored by FACS analysis. […] In panel B, Jurkat cells expressing SIR targeting CDH6 (Clone ID: 051716-J05), CD276 (Clone ID: 050516-Q06) and Her2/neu (Clone ID: 050516-I03) were incubated with SKOV3 (top) and […] (middle and bottom) cells, respectively. […] The Jurkat-NFAT-GFP cells were engineered to express different SIRs targeting other antigens and the experiment repeated upon coculture with the target cells expressing their respective target antigen. The Jurkat-NFAT-GFP (parental) cells were used as control. […] The names of different SIRs, their SEQ ID NOs, component antigen binding domains and TCR chains can be determined by reference to Tables 7A-7H. A SIR is considered positive in the assay in case the SIR expressing Jurkat-NFAT-GFP cells show greater % GFP positive cells when cultured with the target cell line as compared to parental Jurkat-NFAT-GFP cells. […] The signs +/−, +, 2+ etc. after the name of the cell lines indicate the relative degree of positivity on the Jurkat-NFAT-GFP assay as measured by the % GFP positive cells after culture of the SIR expressing Jurkat-NFAT-GFP cells with that cell line.

[1] = test system: target antigen-expressing cell line; assay: Jurkat NFAT-GFP assay, coculture with target cell lines expressing the respective target antigen (summary Table 10A); assay type: cell-based, human; design: key: The signs +/−, +, 2+ etc. after the name of the cell lines indicate the relative degree of positivity on the Jurkat-NFAT-GFP assay as measured by the % GFP positive cells; +: relative degree of positivity on the Jurkat-NFAT-GFP assay as measured by the % GFP positive cells; 2+: relative degree of positivity on the Jurkat-NFAT-GFP assay as measured by the % GFP positive cells
Procedure, shortened: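 Jurkat cells carrying an NFAT-site IL-2 promoter driving GFP were lentivirally transduced with SIRs, puromycin-selected, then cocultured with antigen-expressing target cells at E:T about 1:2 for about 4–18 hours. GFP induction was read by flow cytometry as % GFP-positive cells versus parental Jurkat-NFAT-GFP.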

B1: 10815 (protein)
chain: MALPVTALLLPLALLLHAARPDIQMTQSPSSLSASVGDRVTITCKASDHINNWLAWYQQKPGQAPKLLIYGATTLETGVPSRFSGSGSGTDYTLTISSLQPEDFATYYCQQSWNTPWTFGQGTKLEIKRLEIQNPDPAVYQLRDSKSSDKSVCLFTDFDSQTNVSQSKDSDVYITDKCVLDMRSMDFKSNSAVAWSNKSDFACANAFNNSIIPEDTFFPSSDVPCDVKLVEKSFETDTNLNFQNLSVIGFRILLLKVAGFNLLMTLRLWSSRAKRSGSGVKQTLNFDLLKLAGDVESNPGPTSMDWIWRILFLVGAATGAHSFEQVQLQQPGAELVKPGASVKMSCKASGYAFSSYWINWMKQKPGQGLEWIGQIYPGDGDTNYNGKFKGRATLTADTSSSTAYMQLSSLTSEDSAVYFCARSITTVVGCAMDYWGQGTSVTVSSTREDLKNVFPPEVAVFEPSKAEIAHTQKATLVCLATGFYPDHVELSWWVNGKEVHSGVCTDPQPLKEQPALNDSRYCLSSRLRVSATFWQNPRNHFRCQVQFYGLSENDEWTQDRAKPVTQIVSAEAWGRADCGITSASYHQGVLSATILYEILLGKATLYAVLVSALVLMAMVKRKDSRGRAKRSGSGATNFSLLKQAGDVEENPGPSRGHMTEYKPTVRLATRDDVPRAVRTLAAAFADYPATRHTVDPDRHIERVTELQELFLTRVGLDIGKVWVADDGAAVAVWTTPESVEAGAVFAEIGPRMAELSGSRLAAQQQMEGLLAPHRPKEPAWFLATVGVSPDHQGKGLGSAVVLPGVEAAERAGVPAFLETSAPRNLPFYERLGFTVTADVEVPEGPRTWCMTRKPGA
With B1 the “NFAT-GFP (%)” value (RAJI cells) was 52.36%.

B2: 080816-G03 (protein)
chain: MALPVTALLLPLALLLHAARPLEGKPIPNPLLGLDSTGSGEDLKNVFPPEVAVFEPSKAEIAHTQKATLVCLATGFYPDHVELSWWVNGKEVHSGVCTDPQPLKEQPALNDSRYCLSSRLRVSATFWQNPRNHFRCQVQFYGLSENDEWTQDRAKPVTQIVSAEAWGRADCGITSASYHQGVLSATILYEILLGKATLYAVLVSALVLMAMVKRKDSRGRAKRSGSGATNFSLLKQAGDVEENPGPTSTMALPVTALLLPLALLLHAARPDIVMTQSQKFMSTSVGDRVSIICKASQNVGTFVAWYQQKPGQSPKLLVYSASNRYTGVPDRFTGSGSGTDFTLTINNMQSEDLADYFCRQYSSYPYTFGGGTKLEIKGGGGSGGGGSGGGGSEVQLQQSGPELVKPGASMKISCKASGYSFSAYTMNWVKQSHGKNLEWIGLINPYNGGTNYNQEFEGKATLTVNKSSNTAFMELLSLTSDDSAVYYCARRDWDYFDYWGQGTTLTVSSTREQKLISEEDLGSGTPFPSLAPPIMLLVDGKQQMVVVCLVLDVAPPGLDSPIWFSAGNGSALDAFTYGPSPATDGTWTNLAHLSLPSEELASWEPLVCHTGPGAEGHSRSTQPMHLSGEASTARTCPQEPLRGTPGGALWLGVLRLLLFKLLLFDLLLTCSCLCDPAGPLPSPATTTRLRALGSHRLHPATETGGREATSSPRPQPRDRRWGDTPPGRKPGSPVRAKRSGSGVKQTLNFDLLKLAGDVESNPGPSRSRGHMTEYKPTVRLATRDDVPRAVRTLAAAFADYPATRHTVDPDRHIERVTELQELFLTRVGLDIGKVWVADDGAAVAVWTTPESVEAGAVFAEIGPRMAELSGSRLAAQQQMEGLLAPHRPKEPAWFLATVGVSPDHQGKGLGSAVVLPGVEAAERAGVPAFLETSAPRNLPFYERLGFTVTADVEVPEGPRTWCMTRKPGA
modifications: Polynucleotide encoding a Synthetic Immune Receptor (SIR)
B2 was tested, and the “NFAT-GFP ASSAY Positive Cell lines” value ([1]; coculture with TT cells) was “TT (+/−)”.

B3: 112916-A01 (protein)
chain: MALPVTALLLPLALLLHAARPDIVMTQTPLSLPVTPGEPASISCRSSRSLLDSDDGNTYLDWYLQKPGQSPQLLIYTLSYRASGVPDRFSGSGSGTDFTLKISRVEAEDVGVYYCMQRVEFPITFGQGTRLEIKRLEGKPIPNPLLGLDSTGSGEDLKNVFPPEVAVFEPSKAEIAHTQKATLVCLATGFYPDHVELSWWVNGKEVHSGVCTDPQPLKEQPALNDSRYCLSSRLRVSATFWQNPRNHFRCQVQFYGLSENDEWTQDRAKPVTQIVSAEAWGRADCGITSASYHQGVLSATILYEILLGKATLYAVLVSALVLMAMVKRKDSRGRAKRSGSGATNFSLLKQAGDVEENPGPTSMDWIWRILFLVGAATGAHSFEQVQLVESGGGVVQPGRSLRLSCAASGFIFSRYGMHWVRQAPGKGLKWVAVIWYDGSNKLYADSVKGRFTISRDNSKNTLYLQMNSLRAEDTAVYYCARDYYDNSRHHWGFDYWGQGTLVTVSSTREQKLISEEDGSGIQNPDPAVYQLRDSKSSDKSVCLFTDFDSQTNVSQSKDSDVYITDKCVLDMRSMDFKSNSAVAWSNKSDFACANAFNNSIIPEDTFFPSSDVPCDVKLVEKSFETDTNLNFQNLSVIGFRILLLKVAGFNLLMTLRLWSSRAKRSGSGVKQTLNFDLLKLAGDVESNPGPSRGHMTEYKPTVRLATRDDVPRAVRTLAAAFADYPATRHTVDPDRHIERVTELQELFLTRVGLDIGKVWVADDGAAVAVWTTPESVEAGAVFAEIGPRMAELSGSRLAAQQQMEGLLAPHRPKEPAWFLATVGVSPDHQGKGLGSAVVLPGVEAAERAGVPAFLETSAPRNLPFYERLGFTVTADVEVPEGPRTWCMTRKPGA
modifications: Polynucleotide encoding a Synthetic Immune Receptor (SIR)
In the case of B3, the “NFAT-GFP ASSAY Positive Cell lines” value ([1]; coculture with SKOV3 cells) is reported as “SKOV3 (+)”.

B4: 102116-A05 (protein)
chain: MRLPAQLLGLLMLWVSGSSGDVVMTQSPLSLPVTPGAPASISCRSSQSIVHSNGNTYLEWYLQKPGQSPKLLIYKVSNRFSGVPDRFSGSGSGTDFTLRISRVEAEDVGIYYCFQGSHVPPTFGPGTKLEIKLEEQKLISEEDLGSGEDLKNVFPPEVAVFEPSKAEIAHTQKATLVCLATGFYPDHVELSWWVNGKEVHSGVCTDPQPLKEQPALNDSRYCLSSRLRVSATFWQNPRNHFRCQVQFYGLSENDEWTQDRAKPVTQIVSAEAWGRADCGITSASYHQGVLSATILYEILLGKATLYAVLVSALVLMAMVKRKDSRGRAKRSGSGATNFSLLKQAGDVEENPGPTSMDWIWRILFLVGAATGAHSFEEVQLVESGGGLVQPGGSLRLSCSASGFTFSSFGMHWVRQAPGKGLEWVAYISSGSSTIYYGDTVKGRFTISRDNAKNSLFLQMSSLRAEDTAVYYCAREGGYYYGRSYYTMDYWGQGTTVTVSTREQKLISEEDLGSGIQNPDPAVYQLRDSKSSDKSVCLFTDFDSQTNVSQSKDSDVYITDKCVLDMRSMDFKSNSAVAWSNKSDFACANAFNNSIIPEDTFFPSSDVPCDVKLVEKSFETDTNLNFQNLSVIGFRILLLKVAGFNLLMTLRLWSSRAKRSGSGVKQTLNFDLLKLAGDVESNPGPSRGHMTEYKPTVRLATRDDVPRAVRTLAAAFADYPATRHTVDPDRHIERVTELQELFLTRVGLDIGKVWVADDGAAVAVWTTPESVEAGAVFAEIGPRMAELSGSRLAAQQQMEGLLAPHRPKEPAWFLATVGVSPDHQGKGLGSAVVLPGVEAAERAGVPAFLETSAPRNLPFYERLGFTVTADVEVPEGPRTWCMTRKPGA
modifications: Synthetic Immune Receptor (SIR)
With B4 the “NFAT-GFP ASSAY Positive Cell lines: RAJI” value ([1]; SIR-expressing Jurkat-NFAT-GFP cells cocultured with RAJI, relative % GFP positive cells) was “RAJI (+/−), U266” and the “NFAT-GFP ASSAY Positive Cell lines: U266” value ([1]; SIR-expressing Jurkat-NFAT-GFP cells cocultured with U266, relative % GFP positive cells) was “(+/−)”.

B5: 1038 (protein)
chain: MALPVTALLLPLALLLHAARPEIVLTQSPATLSLSPGERATLSCSASSSVSYMHWYQQKPGQAPRLLIYDTSKLASGIPARFSGSGSGTDFTLTISSLEPEDVAVYYCFQGSVYPFTFGQGTKLEIKRLEGKPIPNPLLGLDSTGSGEDLKNVFPPEVAVFEPSEAEISHTQKATLVCLATGFYPDHVELSWWVNGKEVHSGVSTDPQPLKEQPALNDSRYCLSSRLRVSATFWQNPRNHFRCQVQFYGLSENDEWTQDRAKPVTQIVSAEAWGRADCGFTSESYQQGVLSATILYEILLGKATLYAVLVSALVLMAMVKRKDSRGRAKRSGSGATNFSLLKQAGDVEENPGPTSMDWIWRILFLVGAATGAHSFEQVQLQESGPGLVKPSQTLSLTCTVSGGSISTSGMGVGWIRQHPGKGLEWIGHIWWDDDKRYNPALKSRVTISVDTSKNQFSLKLSSVTAADTAVYYCARMELWSYYFDYWGQGTLVTVSSTREQKLISEEDGSGIQNPDPAVYQLRDSKSSDKSVCLFTDFDSQTNVSQSKDSDVYITDKTVLDMRSMDFKSNSAVAWSNKSDFACANAFNNSIIPEDTFFPSPESSCDVKLVEKSFETDTNLNFQNLSVIGFRILLLKVAGFNLLMTLRLWSSRAKRSGSGVKQTLNFDLLKLAGDVESNPGPSRGHMTEYKPTVRLATRDDVPRAVRTLAAAFADYPATRHTVDPDRHIERVTELQELFLTRVGLDIGKVWVADDGAAVAVWTTPESVEAGAVFAEIGPRMAELSGSRLAAQQQMEGLLAPHRPKEPAWFLATVGVSPDHQGKGLGSAVVLPGVEAAERAGVPAFLETSAPRNLPFYERLGFTVTADVEVPEGPRTWCMTRKPGA
modifications: Synthetic polynucleotide encoding a SIR
With B5 the “NFAT-GFP (%)” value (RAJI cells) was 4.49%.
